The values below come from article PMC12820725, “Ribosomal protein control of hematopoietic stem cell transformation through regulation of metabolism”.

Read-outs that look alike come from different tables or passages of the source.

In data set [1] the target is GST-Rpl22 (UniProt P67984 1-128). Kind of data set: EMSA; 5 mM MgCl2, E. coli tRNA competitor; 37.5 mM HEPES pH 7.9, 75 mM NaCl, 5 mM MgCl2, 0.1 mg/ml BSA, 8% glycerol, 1 ug E. coli tRNA, 5 nM 32P-RNA; temperature not stated.
Data set [2] shares this target. The data set is described as above. To be noted: protein: recombinant; tags: GST; label: 5'-32P.

ACCAGAGUGAUGAUAUUGUGAGGGGAGACCCA (ssRNA) [Alox12 NBS]: the binding result with GST-Rpl22 [1] is “no binding”.

For GCUCAGUGCGGUGCUACCGACCCGAGGUCAAG (ssRNA) [EBER2], the binding result in the data set with GST-Rpl22 [2] is listed as “no binding”.

In the case of AUCCUGCUGGAUGGAAUUCCAGCUAAUGUGAU (structured_RNA) [Alox12 BS1], the binding result with GST-Rpl22 [1] is on record as “no binding”.

GGUCCGUCCCGGGUACAAGUCCCGGGUGGUGA (structured_RNA) [EBER1]: the binding result with GST-Rpl22 [2] is on record as “binds”.

Consider AUUUCCUCACCAUGUGUGUUUUCACAUGCACU (structured_RNA) [Alox12 BS2], for which, in the data set with GST-Rpl22 [1], the binding result is listed as “binds”.
